Measurements reported in PMC2268108.

Biological target: T1, KcsA K+ channel, wild type, P0A334
T1 chain: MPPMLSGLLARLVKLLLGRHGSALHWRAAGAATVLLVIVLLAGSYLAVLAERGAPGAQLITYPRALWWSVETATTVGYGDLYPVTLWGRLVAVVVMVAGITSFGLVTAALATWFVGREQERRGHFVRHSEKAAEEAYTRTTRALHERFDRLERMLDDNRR
Assay: SDS-PAGE of the tetramer
Conditions: remark: other sources report otherwise

B1: KcsA K+ channel, wild type, P0A334 1-160 (natural protein)
chain: MPPMLSGLLARLVKLLLGRHGSALHWRAAGAATVLLVIVLLAGSYLAVLAERGAPGAQLITYPRALWWSVETATTVGYGDLYPVTLWGRLVAVVVMVAGITSFGLVTAALATWFVGREQERRGHFVRHSEKAAEEAYTRTTRALHERFDRLERMLDDNRR
stoichiometry N: 4
